Data set [1] addresses HMR-1^S1212E (polyhistidine-tagged HMR-1^1108–1223) (C. elegans). The experiment in a line: liposome co-flotation.
The target of data set [2] is HMR-1^T1215E,S1218E (polyhistidine-tagged HMR-1^1108–1223) (C. elegans). The experiment in a line: liposome co-flotation.
Data set [3] addresses HMR-1^S1212E,T1215E,S1218E (polyhistidine-tagged HMR-1^1108–1223) (C. elegans). The experiment in a line: liposome co-flotation.
For data set [4], the target named is CK1-phosphorylated HMR-1^1108–1223 (polyhistidine-tagged) (C. elegans). The experiment in a line: liposome co-flotation.
The data set “SEC-MALS” deals with the molecule itself. The experiment in a line: SEC-MALS. (In general: In gel filtration, larger molecules generally elute earlier.)

Usually stoichiometry N stands for the number of molecules, sites or subunits per partner or assembly.

“HMP-1/HMP-2 complex (untagged, purified) (from UniProt P90947 1-927; O44326 1-678)” yielded a fold increase in HMP-1/HMP-2 recovery against unmodified HMR-1^1108–1223 in data set [1] of 1.8 fold. Besides, the fold increase in HMP-1/HMP-2 binding against unmodified HMR-1^1108–1223 in data set [2] is 1.4 fold. This molecule also came in with a fold increase in HMP-1/HMP-2 association against unmodified HMR-1^1108–1223 in data set [3] of 2.2 fold. Also, the fold enhancement in HMP-1/HMP-2 recovery against unphosphorylated HMR-1 in data set [4] turned out to be 6 fold.

B1: recombinant full-length HMP-2 (natural protein, C. elegans, UniProt O44326 1-678, looked up)
chain: MLLHSTNSYSIFTDHEVETRTSRIRSAMFPDWIPPTSAAEATNSTTSIVEMMQMPTQQLKQSVMDLLTYEGSNDMSGLSLPDLVKLMCDHDESVVARAVHRAYMLSREDPNFFNAPGFDHRSFVEALMAASKSSNVNVRRNAIGALSHMSEQRGGPLLIFRSGGLAEIIRMLYDSLESVVHYAVTTLRNLLMHVSDSRAQARALNAVEALTPHLHKTNPKLLAQVADGLYFLLIDDAPSKITFLSLLGPQILVSILREYSDHRKLIYTVVRCIRSLSVCPSNKPALISLGCLPALYVELCTAKDERSQTAILVAMRNLSDSATNEENLTQLIIKLLEIIRVANDGMTACACGTLSNLTCNNTRNKQTVCSHGGIDALVTAIRRLPEVEEVTEPALCALRHCTARHSLAEEAQSELRFCQAFPVILDQLETLRTPVIKAALGVIRNSALLQTNLIELTQEQTANGHTAVSLTMDILRRAITAIEENPDIAVDGVPMWGVIEGAVSALHQLANHPAVAAACCDDIGQVGNPECPPFLDLLHRLLAHPRLGSMDDEVLEREILGLLYQLSKRPDGARAVESTGVSALLMESRGSQYKSVVTYANGVLSNLKRGDSAAIMNMSNSYDYEMSGSAADWQRDGLERELFAEMYPTNDGGHSESINMALNNSQMRPNHNWYDTDL
Consider B1, for which the “stoichiometry N” value in “SEC-MALS” was 2.

For the origin of these results see paper PMC4663164 (The Biochemical journal, 2015).
